{"source": "paper PMC9636267", "about": "(Communications Biology, 2022)", "binders": {"B1": {"name": "human aminopeptidase N (hAPN), soluble ectodomain (66–967 aa) (receptor, UniProt P15144 66-967, looked up)", "chain": "DQSKAWNRYRLPNTLKPDSYRVTLRPYLTPNDRGLYVFKGSSTVRFTCKEATDVIIIHSKKLNYTLSQGHRVVLRGVGGSQPPDIDKTELVEPTEYLVVHLKGSLVKDSQYEMDSEFEGELADDLAGFYRSEYMEGNVRKVVATTQMQAADARKSFPCFDEPAMKAEFNITLIHPKDLTALSNMLPKGPSTPLPEDPNWNVTEFHTTPKMSTYLLAFIVSEFDYVEKQASNGVLIRIWARPSAIAAGHGDYALNVTGPILNFFAGHYDTPYPLPKSDQIGLPDFNAGAMENWGLVTYRENSLLFDPLSSSSSNKERVVTVIAHELAHQWFGNLVTIEWWNDLWLNEGFASYVEYLGADYAEPTWNLKDLMVLNDVYRVMAVDALASSHPLSTPASEINTPAQISELFDAISYSKGASVLRMLSSFLSEDVFKQGLASYLHTFAYQNTIYLNLWDHLQEAVNNRSIQLPTTVRDIMNRWTLQMGFPVITVDTSTGTLSQEHFLLDPDSNVTRPSEFNYVWIVPITSIRDGRQQQDYWLIDVRAQNDLFSTSGNEWVLLNLNVTGYYRVNYDEENWRKIQTQLQRDHSAIPVINRAQIINDAFNLASAHKVPVTLALNNTLFLIEERQYMPWEAALSSLSYFKLMFDRSEVYGPMKNYLKKQVTPLFIHFRNNTNNWREIPENLMDQYSEVNAISTACSNGVPECEEMVSGLFKQWMENPNNNPIHPNLRSTVYCNAIAQGGEEEWDFAWEQFRNATLVNEADKLRAALACSKELWILNRYLSYTLNPDLIRKQDATSTIISITNNVIGQGLVWDFVQSNWKKLFNDYGGGSFSFSNLIQAVTRRFSTEYELQQLEQFKKDNEETGFGSGTRALEQALEKTKANIKWVKENKEVVLQWFTENSK", "notes": "also called recombinant hAPN protein"}}, "target": "T1, HCoV-229E S ectodomain (17–1115 aa), 229E S trimer (human coronavirus 229E, UniProt P15423 17-1115)", "T1 sequence (looked up)": "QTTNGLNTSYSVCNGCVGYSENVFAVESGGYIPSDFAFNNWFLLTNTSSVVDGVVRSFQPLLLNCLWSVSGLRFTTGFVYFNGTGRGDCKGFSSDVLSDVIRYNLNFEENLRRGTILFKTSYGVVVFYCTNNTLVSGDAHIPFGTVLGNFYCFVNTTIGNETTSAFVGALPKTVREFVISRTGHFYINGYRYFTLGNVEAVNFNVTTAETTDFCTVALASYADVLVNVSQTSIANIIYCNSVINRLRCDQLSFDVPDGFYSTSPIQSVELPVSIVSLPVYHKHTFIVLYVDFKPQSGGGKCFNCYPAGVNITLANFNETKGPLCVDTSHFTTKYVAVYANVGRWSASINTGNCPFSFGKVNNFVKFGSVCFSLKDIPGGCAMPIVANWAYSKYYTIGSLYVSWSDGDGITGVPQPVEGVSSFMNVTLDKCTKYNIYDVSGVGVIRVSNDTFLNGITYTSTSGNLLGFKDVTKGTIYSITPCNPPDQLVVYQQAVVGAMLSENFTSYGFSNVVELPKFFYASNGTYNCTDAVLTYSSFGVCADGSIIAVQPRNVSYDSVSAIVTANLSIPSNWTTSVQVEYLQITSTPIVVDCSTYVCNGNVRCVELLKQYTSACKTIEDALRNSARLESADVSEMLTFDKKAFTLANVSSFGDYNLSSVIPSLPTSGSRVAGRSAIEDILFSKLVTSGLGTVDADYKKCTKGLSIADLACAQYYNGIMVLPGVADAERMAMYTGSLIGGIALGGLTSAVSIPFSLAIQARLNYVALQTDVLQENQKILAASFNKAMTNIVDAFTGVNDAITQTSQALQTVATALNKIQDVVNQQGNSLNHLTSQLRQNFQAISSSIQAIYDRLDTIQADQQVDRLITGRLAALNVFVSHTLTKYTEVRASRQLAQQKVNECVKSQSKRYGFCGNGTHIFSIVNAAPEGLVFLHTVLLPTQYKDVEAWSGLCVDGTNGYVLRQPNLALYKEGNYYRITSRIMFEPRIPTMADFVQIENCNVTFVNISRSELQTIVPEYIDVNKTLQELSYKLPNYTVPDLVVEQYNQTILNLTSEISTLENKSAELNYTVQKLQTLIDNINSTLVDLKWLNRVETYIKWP", "assay": "SPR", "conditions": "both partners purified"}
{"binder": "B1", "values": [{"measurement": "binding result", "result": "binds"}]}
